The values that follow come from PMC4764579 (2016).

In the experiment the target is TRPV1 (Rattus norvegicus, UniProt O35433). The experiment is described as follows: electrophysiology, Hill fit.

Usually Kd stands for a measure of binding affinity in units of concentration.

Sequence of TRPV1 (O35433 whole entry): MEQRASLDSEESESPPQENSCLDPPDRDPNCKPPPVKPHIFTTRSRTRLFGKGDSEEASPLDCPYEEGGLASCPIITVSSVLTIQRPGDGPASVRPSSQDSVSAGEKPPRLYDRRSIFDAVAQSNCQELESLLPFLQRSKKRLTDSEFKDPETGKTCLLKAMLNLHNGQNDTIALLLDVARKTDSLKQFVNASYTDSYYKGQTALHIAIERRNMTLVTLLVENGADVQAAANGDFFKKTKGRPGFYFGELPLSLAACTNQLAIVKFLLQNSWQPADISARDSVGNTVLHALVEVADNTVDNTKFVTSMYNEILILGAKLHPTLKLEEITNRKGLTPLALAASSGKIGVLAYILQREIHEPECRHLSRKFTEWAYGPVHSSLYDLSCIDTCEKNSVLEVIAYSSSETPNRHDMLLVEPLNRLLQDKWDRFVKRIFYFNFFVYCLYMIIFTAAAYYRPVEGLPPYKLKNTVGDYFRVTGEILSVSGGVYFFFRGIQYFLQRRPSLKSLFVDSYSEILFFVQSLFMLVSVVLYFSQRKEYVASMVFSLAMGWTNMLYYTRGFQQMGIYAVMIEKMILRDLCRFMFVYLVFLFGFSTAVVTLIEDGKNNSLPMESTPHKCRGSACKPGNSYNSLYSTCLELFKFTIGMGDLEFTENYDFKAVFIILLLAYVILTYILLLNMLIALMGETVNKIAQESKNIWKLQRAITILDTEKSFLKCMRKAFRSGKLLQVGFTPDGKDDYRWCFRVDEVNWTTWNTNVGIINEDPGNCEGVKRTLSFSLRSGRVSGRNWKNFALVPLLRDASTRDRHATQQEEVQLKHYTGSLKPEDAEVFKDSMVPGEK

B1: double-knot toxin (DkTx) K2 knot (peptide)
chain: TNCAKEGEVCGWGSKCCHGLDCPLAFIPYC
As for B1, binding was put at a Kd of 8.5 µM.
